Source: patent EP0896625B1

Experiments:
Test in all cases: cell-based or functional assay
[1] = molecular target: recombinant human eosinophil-derived neurotoxin (human)
rEDN(1-21)rOncG26 = molecular target: rEDN(1-21)rOncG26
[2] = molecular target: Native ONCONASE (Rana pipiens)
[3] = molecular target: rEDN(1-21)rOnc (human; Rana pipiens)
[4] = molecular target: [Met-(-1)]rOncG20 (Rana pipiens)
[5] = molecular target: [Met-(-1)]rOnc (Rana pipiens)

In the case of “Placental ribonuclease inhibitor (from UniProt P13489 2-461)”, the Fold Difference, (+)PRI against (-)PRI [1] is reported as greater than 30.7 fold, the IC50 (ng/ml), (+)PRI, inhibition of protein synthesis in the rabbit reticulocyte lysate [1] is reported as greater than 40 ng/mL and the Fold Difference, (+)PRI against (-)PRI (rEDN(1-21)rOncG26) is reported as 21 fold. The IC50 (ng/ml), (+)PRI, inhibition of protein synthesis in the rabbit reticulocyte lysate (rEDN(1-21)rOncG26) was 600 ng/mL, the Fold Difference, (+)PRI against (-)PRI [2] was 1.2 fold and the IC50 (ng/ml), (+)PRI, inhibition of protein synthesis in the rabbit reticulocyte lysate [2] was 0.24 ng/mL. The IC50 (ng/ml), (+)PRI, inhibition of protein synthesis in the rabbit reticulocyte lysate [3] was 3200 ng/mL, the Fold Difference, (+)PRI against (-)PRI [4] was 0.9 fold and the IC50 (ng/ml), (+)PRI, inhibition of protein synthesis in the rabbit reticulocyte lysate [4] was 24 ng/mL. It also gave a Fold Difference, (+)PRI against (-)PRI [5] of 1.4 fold and an IC50 (ng/ml), (+)PRI, inhibition of protein synthesis in the rabbit reticulocyte lysate [5] of 140 ng/mL.
